B1: full-length FLAG-CDHR3 Y529 N186Q (receptor)
chain: DYKDDDDKLHLILLPATGNVAENSPPGTSVHKFSVKLSASLSPVIPGFPQIVNSNPLTEAFRVNWLSGTYFEVVTTGMEQLDFETGPNIFDLQIYVKDEVGVTDLQVLTVQVTDVNEPPQFQGNLAEGLHLYIVERANPGFIYQVEAFDPEDTSRNIPLSYFLISPPKSFRMSAQGTLFSTTELDFEAGHRSFHLIVEVRDSGGLKASTELQVNIVNLNDEVPRFTSPTRVYTVLEELSPGTIVANITAEDPDDEGFPSHLLYSITTVSKYFMINQLTGTIQVAQRIDRDAGELRQNPTISLEVLVKDRPYGGQENRIQITFIVEDVNDNPATCQKFTFSIMVPERTAKGTLLLDLNKFCFDDDSEAPNNRFNFTMPSGVGSGSRFLQDPAGSGKIVLIGDLDYENPSNLAAGNKYTVIIQVQDVAPPYYKNNVYVYILTSPENEFPLIFDRPSYVFDVSERRPARTRVGQVRATDKDLPQSSLLYSISTGGASLQYPNVFWINPKTGELQLVTKVDYETTPIYILRIQATNNEDTSSVTVTVNILEENDEKPICTPNSYFLALPVDLKVGTNIQNFKLTCTDLDSSPRSFRYSIGPGNVNNHFTFSPNAGSNVTRLLLTSRFDYAGGFDKIWDYKLLVYVTDDNLMSDRKKAEALVETGTVTLSIKVIPHPTTIITTTPRPRVTYQVLRKNVYSPSAWYVPFVITLGSILLLGLLVYLVVLLAKAIHRHCPCKTGKNKEPLTKKGETKTAERDVVVETIQMNTIFDGEAIDPVTGETYEFNSKTGARKWKDPLTQMPKWKESSHQGAAPRRVTAGEGMGSLRSANWEEDELSGKAWAEDAGLGSRNEGGKLGNPKNRNPAFMNRAYPKPHPGK
B2: full-length FLAG-CDHR3 Y529 R166A (receptor)
chain: DYKDDDDKLHLILLPATGNVAENSPPGTSVHKFSVKLSASLSPVIPGFPQIVNSNPLTEAFRVNWLSGTYFEVVTTGMEQLDFETGPNIFDLQIYVKDEVGVTDLQVLTVQVTDVNEPPQFQGNLAEGLHLYIVERANPGFIYQVEAFDPEDTSANIPLSYFLISPPKSFRMSANGTLFSTTELDFEAGHRSFHLIVEVRDSGGLKASTELQVNIVNLNDEVPRFTSPTRVYTVLEELSPGTIVANITAEDPDDEGFPSHLLYSITTVSKYFMINQLTGTIQVAQRIDRDAGELRQNPTISLEVLVKDRPYGGQENRIQITFIVEDVNDNPATCQKFTFSIMVPERTAKGTLLLDLNKFCFDDDSEAPNNRFNFTMPSGVGSGSRFLQDPAGSGKIVLIGDLDYENPSNLAAGNKYTVIIQVQDVAPPYYKNNVYVYILTSPENEFPLIFDRPSYVFDVSERRPARTRVGQVRATDKDLPQSSLLYSISTGGASLQYPNVFWINPKTGELQLVTKVDYETTPIYILRIQATNNEDTSSVTVTVNILEENDEKPICTPNSYFLALPVDLKVGTNIQNFKLTCTDLDSSPRSFRYSIGPGNVNNHFTFSPNAGSNVTRLLLTSRFDYAGGFDKIWDYKLLVYVTDDNLMSDRKKAEALVETGTVTLSIKVIPHPTTIITTTPRPRVTYQVLRKNVYSPSAWYVPFVITLGSILLLGLLVYLVVLLAKAIHRHCPCKTGKNKEPLTKKGETKTAERDVVVETIQMNTIFDGEAIDPVTGETYEFNSKTGARKWKDPLTQMPKWKESSHQGAAPRRVTAGEGMGSLRSANWEEDELSGKAWAEDAGLGSRNEGGKLGNPKNRNPAFMNRAYPKPHPGK
B3: full-length FLAG-CDHR3 Y529 K43A (receptor)
chain: DYKDDDDKLHLILLPATGNVAENSPPGTSVHAFSVKLSASLSPVIPGFPQIVNSNPLTEAFRVNWLSGTYFEVVTTGMEQLDFETGPNIFDLQIYVKDEVGVTDLQVLTVQVTDVNEPPQFQGNLAEGLHLYIVERANPGFIYQVEAFDPEDTSRNIPLSYFLISPPKSFRMSANGTLFSTTELDFEAGHRSFHLIVEVRDSGGLKASTELQVNIVNLNDEVPRFTSPTRVYTVLEELSPGTIVANITAEDPDDEGFPSHLLYSITTVSKYFMINQLTGTIQVAQRIDRDAGELRQNPTISLEVLVKDRPYGGQENRIQITFIVEDVNDNPATCQKFTFSIMVPERTAKGTLLLDLNKFCFDDDSEAPNNRFNFTMPSGVGSGSRFLQDPAGSGKIVLIGDLDYENPSNLAAGNKYTVIIQVQDVAPPYYKNNVYVYILTSPENEFPLIFDRPSYVFDVSERRPARTRVGQVRATDKDLPQSSLLYSISTGGASLQYPNVFWINPKTGELQLVTKVDYETTPIYILRIQATNNEDTSSVTVTVNILEENDEKPICTPNSYFLALPVDLKVGTNIQNFKLTCTDLDSSPRSFRYSIGPGNVNNHFTFSPNAGSNVTRLLLTSRFDYAGGFDKIWDYKLLVYVTDDNLMSDRKKAEALVETGTVTLSIKVIPHPTTIITTTPRPRVTYQVLRKNVYSPSAWYVPFVITLGSILLLGLLVYLVVLLAKAIHRHCPCKTGKNKEPLTKKGETKTAERDVVVETIQMNTIFDGEAIDPVTGETYEFNSKTGARKWKDPLTQMPKWKESSHQGAAPRRVTAGEGMGSLRSANWEEDELSGKAWAEDAGLGSRNEGGKLGNPKNRNPAFMNRAYPKPHPGK
B4: full-length FLAG-CDHR3 Y529 W76A (receptor)
chain: DYKDDDDKLHLILLPATGNVAENSPPGTSVHKFSVKLSASLSPVIPGFPQIVNSNPLTEAFRVNALSGTYFEVVTTGMEQLDFETGPNIFDLQIYVKDEVGVTDLQVLTVQVTDVNEPPQFQGNLAEGLHLYIVERANPGFIYQVEAFDPEDTSRNIPLSYFLISPPKSFRMSANGTLFSTTELDFEAGHRSFHLIVEVRDSGGLKASTELQVNIVNLNDEVPRFTSPTRVYTVLEELSPGTIVANITAEDPDDEGFPSHLLYSITTVSKYFMINQLTGTIQVAQRIDRDAGELRQNPTISLEVLVKDRPYGGQENRIQITFIVEDVNDNPATCQKFTFSIMVPERTAKGTLLLDLNKFCFDDDSEAPNNRFNFTMPSGVGSGSRFLQDPAGSGKIVLIGDLDYENPSNLAAGNKYTVIIQVQDVAPPYYKNNVYVYILTSPENEFPLIFDRPSYVFDVSERRPARTRVGQVRATDKDLPQSSLLYSISTGGASLQYPNVFWINPKTGELQLVTKVDYETTPIYILRIQATNNEDTSSVTVTVNILEENDEKPICTPNSYFLALPVDLKVGTNIQNFKLTCTDLDSSPRSFRYSIGPGNVNNHFTFSPNAGSNVTRLLLTSRFDYAGGFDKIWDYKLLVYVTDDNLMSDRKKAEALVETGTVTLSIKVIPHPTTIITTTPRPRVTYQVLRKNVYSPSAWYVPFVITLGSILLLGLLVYLVVLLAKAIHRHCPCKTGKNKEPLTKKGETKTAERDVVVETIQMNTIFDGEAIDPVTGETYEFNSKTGARKWKDPLTQMPKWKESSHQGAAPRRVTAGEGMGSLRSANWEEDELSGKAWAEDAGLGSRNEGGKLGNPKNRNPAFMNRAYPKPHPGK
B5: full-length FLAG-CDHR3 Y529 N186A (receptor)
chain: DYKDDDDKLHLILLPATGNVAENSPPGTSVHKFSVKLSASLSPVIPGFPQIVNSNPLTEAFRVNWLSGTYFEVVTTGMEQLDFETGPNIFDLQIYVKDEVGVTDLQVLTVQVTDVNEPPQFQGNLAEGLHLYIVERANPGFIYQVEAFDPEDTSRNIPLSYFLISPPKSFRMSAAGTLFSTTELDFEAGHRSFHLIVEVRDSGGLKASTELQVNIVNLNDEVPRFTSPTRVYTVLEELSPGTIVANITAEDPDDEGFPSHLLYSITTVSKYFMINQLTGTIQVAQRIDRDAGELRQNPTISLEVLVKDRPYGGQENRIQITFIVEDVNDNPATCQKFTFSIMVPERTAKGTLLLDLNKFCFDDDSEAPNNRFNFTMPSGVGSGSRFLQDPAGSGKIVLIGDLDYENPSNLAAGNKYTVIIQVQDVAPPYYKNNVYVYILTSPENEFPLIFDRPSYVFDVSERRPARTRVGQVRATDKDLPQSSLLYSISTGGASLQYPNVFWINPKTGELQLVTKVDYETTPIYILRIQATNNEDTSSVTVTVNILEENDEKPICTPNSYFLALPVDLKVGTNIQNFKLTCTDLDSSPRSFRYSIGPGNVNNHFTFSPNAGSNVTRLLLTSRFDYAGGFDKIWDYKLLVYVTDDNLMSDRKKAEALVETGTVTLSIKVIPHPTTIITTTPRPRVTYQVLRKNVYSPSAWYVPFVITLGSILLLGLLVYLVVLLAKAIHRHCPCKTGKNKEPLTKKGETKTAERDVVVETIQMNTIFDGEAIDPVTGETYEFNSKTGARKWKDPLTQMPKWKESSHQGAAPRRVTAGEGMGSLRSANWEEDELSGKAWAEDAGLGSRNEGGKLGNPKNRNPAFMNRAYPKPHPGK
B6: rEC1-3 K43A (CDHR3 residues 20-345 with K43A and C345A), bacterially produced and refolded (receptor)
chain: MASDYKDDDDKLHLILLPATGNVAENSPPGTSVHAFSVKLSASLSPVIPGFPQIVNSNPLTEAFRVNWLSGTYFEVVTTGMEQLDFETGPNIFDLQIYVKDEVGVTDLQVLTVQVTDVNEPPQFQGNLAEGLHLYIVERANPGFIYQVEAFDPEDTSRNIPLSYFLISPPKSFRMSANGTLFSTTELDFEAGHRSFHLIVEVRDSGGLKASTELQVNIVNLNDEVPRFTSPTRVYTVLEELSPGTIVANITAEDPDDEGFPSHLLYSITTVSKYFMINQLTGTIQVAQRIDRDAGELRQNPTISLEVLVKDRPYGGQENRIQITFIVEDVNDNPATAGTKHHHHHH
B7: rEC1-3 N186A (CDHR3 residues 20-345 with N186A and C345A), bacterially produced and refolded (receptor)
chain: MASDYKDDDDKLHLILLPATGNVAENSPPGTSVHKFSVKLSASLSPVIPGFPQIVNSNPLTEAFRVNWLSGTYFEVVTTGMEQLDFETGPNIFDLQIYVKDEVGVTDLQVLTVQVTDVNEPPQFQGNLAEGLHLYIVERANPGFIYQVEAFDPEDTSRNIPLSYFLISPPKSFRMSAAGTLFSTTELDFEAGHRSFHLIVEVRDSGGLKASTELQVNIVNLNDEVPRFTSPTRVYTVLEELSPGTIVANITAEDPDDEGFPSHLLYSITTVSKYFMINQLTGTIQVAQRIDRDAGELRQNPTISLEVLVKDRPYGGQENRIQITFIVEDVNDNPATAGTKHHHHHH

How the values were obtained:
[1] = molecular target: rhinovirus C15 virus (recombinant RV-C isolate C15, sucrose purified) (rhinovirus C15); test: IP (α-His mAb) of refolded bacterial protein (100 pmol) with C15 virus (10^7 PFUe), Western blot
[2] = molecular target: rhinovirus C15 virus (recombinant RV-C isolate C15, sucrose purified) (rhinovirus C15); test: IP (α-CDHR3 mAb) of transfected HeLa cell lysate reacted with C15 virus, Western blot
[3] = molecular target: rhinovirus C15 virus (recombinant RV-C isolate C15, sucrose purified) (rhinovirus C15); test: IP of CDHR3 with C15 virus, Western blot; multiple experiments and CDHR3 contexts
[4] = molecular target: rhinovirus C15 virus (recombinant RV-C isolate C15, sucrose purified) (rhinovirus C15); test: IP (α-His mAb) of refolded bacterial protein (100 pmol) with C15 virus (10^7 PFUe), Western blot; remark: listed apart in the source

| Molecule | virus-binding efficiency (Binding % relative to positive control) [1] | Binding % (C15 signal normalized to CDHR3 signal, relative to WT) [2] | other results |
| --- | --- | --- | --- |
| rEC1 (FLAG-CDHR3 EC1-His, CDHR3 residues 20-130), bacterially produced and refolded (receptor) | 100% |  |  |
| rEC1-2 (FLAG-CDHR3 EC1-2-His, CDHR3 residues 20-237), bacterially produced and refolded (from UniProt Q6ZTQ4 20-237) (receptor) | 87% |  |  |
| rEC1+3(Δ2) (FLAG-CDHR3 EC1+3(Δ2), residues 20-345 Δ129-231 with C345A), bacterially produced and refolded (from UniProt Q6ZTQ4 20-344) (receptor) | 68% |  |  |
| rEC1-3 (FLAG-CDHR3 EC1-3-His, CDHR3 residues 20-345 with C345A), bacterially produced and refolded (from UniProt Q6ZTQ4 20-344) (receptor) | 61% |  |  |
| B1 |  | 19% |  |
| B2 |  | 16% |  |
| B3 |  | 46% |  |
| B4 |  |  | more virus pull-down than comparable WT sequences (% more than WT) [3]: 50 to 80 |
| B5 |  | 11% |  |
| B6 |  |  | Binding % (C15 signal normalized to recombinant protein signal, relative to WT rEC1-3) [4]: 22% |
| B7 |  |  | Binding % (C15 signal normalized to recombinant protein signal, relative to WT rEC1-3) [4]: 85 % of WT |
